Assay: soluble on expression in E. coli; label from the status in PepcDB or PDB records

Q: With “MEQLNKMAPKDVRALIREGKINGPTAGMSGGYAQANLVVLKKDLAFDFLLFCQRNQKPCPVLDVTEAGSPVPSLLRRMLISRTDFPKYRIYRHGILTEEVSDITPYWEDDFVGFLIGCSFSFEQALINNGIAVRHIDEGTNVSMYKTNIDCFPVGAFHGQMVVSMRPVPERLAVRAAQVTSRFPAVHGGPIHIGNPGAIGIRDLGKPDFGDAVSIRDGEVPVFWACGVTPQAVAMNVKPEMVITHAPGHMLITDIRDESLAVLLEHHHHHH” as the sequence, how does the “soluble on expression in E. coli” value read?
A: soluble

Q: Which “soluble on expression in E. coli” value does the source give for “DAGQANDDALRVALQFKPVADFSPYSDDAVLNLRMGAVETLVTLDEDGKPKPVLAEKWEMKDDRTAVLTLRKDVSFHDGSKLTGEVVKNALDHALSATTRPKGLGKADLKVEATGESEVTITAPEADPILVQRLTDPGAAILSKDAYAGENPDPFNHGTGPFKLVKKESDGSVSAEAFADYWNGTPETSALKVSFIEDGAARANAFRAGDFDVIKGVPVVALPELSDAHVTDVHLPRATLLHLNAEKGVFADAKLRTAVAGAIKTDAIVDKIYEGKANKTEGSLFNLDAQWAQKAKPLAGAPADATIGKGKTVRLATWDSRAELPETANLIADQLRALGFNVDITVADYASLENRLLDGSFDAVIGSRSYMIGAGDPVAFLDTDFTCDGSYNLSRLCDPEIDKKIAAAKSEKDLDTRHKD” here?
A: not soluble

Q: With “MSLQNRIMITGAGSGLGREMALRWAREGWRLALSDINDAGLQETLALVREAGGDGFVQRCDVRDYSQLTAFAQTCEERFGGMDIIVNNAGVASGGFFNELSLEDWDWQIAINLMGVVKGCKAFLPMLQASKGKIINIASMAALMQAPAMSNYNVAKAGVVALSESLLVELRDQDVGVHVVCPSFFQTNLLDSFRGPTPAMKAQIGRLLEKSPITATDIADYIFTQVAEGEFMILPHEEGRLAWDMKRQQPQAMYDEMTVMCAKMRAKAQKGEGHHHHHH” as the sequence, how does the “soluble on expression in E. coli” value read?
A: soluble

Q: Which “soluble on expression in E. coli” value does the source give for “GIHMGKIKRRAITEHEKRALRHYFFQLQNRSGQQDLIEWFREKFGKDISQPSVSQILSSKYSYLDNTVEKPWDVKRNRPPKYPLLEAALFEWQVQQGDDATLSGETIKRAAAILWHKIPEYQDQPVPNFSNGWLEGFRKRHILH” here?
A: soluble

Q: Which “soluble on expression in E. coli” value does the source give for “MSLKYGIIGAGAMGYRYGVMLQENAGVDVDFIDTWGPNVAKVREQGGVDVARDHQNHHVVPINIYYPEEYQGHPDVWIVFKKQMQLADELKRDASLFHEDQYVFAAMNGMGHFEKIAQYFPENHIIGGTAMIATVLNGPGTVDFMGPKGSEAMHMSKYAGHIDTTTKQVMADFKAADLNPIWSDNFMGMCMSKVVFNAVTNSLCTMFEIQMGQFIEYPGVKDMATQMFNEAYDACERAGIKLIETRQEEIDSVETVSRAYKYHYPSMYQDFSKGRPTEVDYINGYIAKIGREHDYVCRVHEFVTHEVHLAEMMRQYRHPEIPVAEKEGHHHHHH” here?
A: not soluble

Q: With “GETASSLWIDAAVAVSVPFQLNSVADRMNQGFSRLYQAYLLSRLRRIFLKKLNHLNNSPFSKSDLLSLKTFWDFDERITAPINGFKNAHEYYQKASSRQYLKNITTPTLIIHAQDDPFMTPDAIPASKELSSQTTLELSEYGGHVGFIAGTGKNSSQPVYWLEQRIPEFLLEYLS” as the sequence, how does the “soluble on expression in E. coli” value read?
A: not soluble

Q: With “MLILSTEKEPNFEYEEITRSFLSNMLAFTRGHFTGDISHFSPIVLAEMEKDPNWLEEAAGGMQGVIVQSLLEDENFSSVEQLKGELARLIRLYFALAKDNLTENQESLYVDLFDKFTFLLLCSDEFIMYLDSQPKF” as the sequence, how does the “soluble on expression in E. coli” value read?
A: soluble

Q: For “MVNTLAFEYSYKALIVYCRINNNNFSLVKLKSNLNFSVPKIFNDFVIKNNIDLNQIELIINSCGPGSFTGLRISLSFVKGLALGLSIPFVNISTLDVFANLVENNPSAVVLTFTAGKYFLGNYKNCKLIGKILCFSKKDLFEYLNQIDPNSVLIGNNLEDVCKECNYKFKIIENLSSFGKILTELGVAKYLKNRKGDDILSGPLYIRQSDAEVNFHSLEHHHHHH”, which “soluble on expression in E. coli” value is on record?
A: not soluble

Q: For “MGSDKIHHHHHHMNVTDLPQACISLIENVPGIDFIDEDFAIFDNIDDIPSLDHPMRIDAVVFALCTKGFMRIRINMEEYVVGENHLVLSLPDQIIQHVERSEDVAGIFIVISKNFMEEIIPHIQNTLPAFFYIKEHPVTELNAEEIGCIKEYHSFLWKKVKAKRHPYRKEIAQSLLLAVFHEVYGMFKNHMPIEVKKSRQEELFAAFIQTLALHHKQERSVAFYAGKLCVTPKYLSLLVKNVSNRTAGEWIDNYVVLEAKALLSSSTLSIQEISDRLNFTNQSFFGKYFKQHVGISPTEYRKKW”, which “soluble on expression in E. coli” value is on record?
A: not soluble

Q: With “GPGSMKKNLLADRTARVFEEARESATRLAAVSDTVSRAAVPHGIRHLFYTADTQREQRQCLAKVFAATCPSLHPLRSGEGEAGDGESSDPTSAAAAAHQDYILLILPDCAKVEDFISHVLLPGQADALRILGSQDDARCTDYLVERLDHTVQVQQQQRRRAETRKFIQRTVRKAEALDGDVGYPSSAPQPSPLFRRLEREVNATAAPIHAAASESQAPAPTSLATSPAVCAADSLTASSSPLRPPRRCFITCNCNNVRGLDLPHLTHVVILAQPTTALEYAHWCGRVGRFGRPGVSVTLMARSATRHMHQFCDSLGIAFRVEKRHAEVDVNAERWLSGADAE” as the sequence, how does the “soluble on expression in E. coli” value read?
A: soluble

Q: For “MAHHHHHHMRISCSCLNKSLVSTAIPSDIIERAGTNLPGIPHKYRVCRAYRQWLKLAVLCPHSLLCELNEHAQMNERFVIIVRQKFREGEELRDPEEIAVAVQSCERSLAMFRFLAADGARRRFPEAKPRLNLHKMGFMEMAKINYTQMAKEYWNTYIMRRW”, which “soluble on expression in E. coli” value is on record?
A: not soluble

Q: Which “soluble on expression in E. coli” value does the source give for “MGDFREVLFYHSETKHYPYRFARSLGYLDWENQPNPFRFWEGTERLDLPLLKDPSHPYEALYDYGLVNTEEFNVKSLSKFLELALGLSAWKAIPGSRWSVRMNPSSGNLHPTECYVIIPHLGGLQGVFHYNPFLHALEKRADIPYELSQKIKDFFGTEGFILILTSIPWRESWKYGERAYRYCLLDTGHAIGSVRFSANLKGWKVKYLNALSDKDLEILLGFDRVQWVEGEEEFPELALFVFPKEVQDVPRTIPESIINEFKKLNFYGRPNVLSKERVIWEIIYRAIKETEKPRTEEFRVIYGNPPILNLVPSYMSAEEVIRKRRSGMAYDGKTYILRELFIHALDKTLPRDNYSPFDVEIGLPFVNLFIFVNRVENLPKGLYCFVRNEELLKDLKEITSSEFLWEKVFEDFPLYLLKTGDFREVAGFVACAQDIASDSAFSLGMISLFEPVLREEPWFYRNLHWEAGLIGQVLYLEATAHNLNGTGIGCFFDDAMHEVLGISDKTFQDLYHFTFGKAVEDPRIQTIEPYYHLKRERR” here?
A: not soluble

Q: With “MGSDKIHHHHHHMMPAKWDEVRPLLDRFSRDLPTNATVWFMMPDGSYYATAKGGFTDQNLKDCTCFPKLIGGKEVLGELVISRSTGQRSIVVAAPVVADGKVVAAVGVSVDAVKLIEVVESRMTLPENAYIYALDAKTKVTLHRYQARTFKTVFEIGNESLGDTFKKVMHREQGVFNYSLEGKKMNSIFRKSPVHGWYFFIAQQCK” as the sequence, how does the “soluble on expression in E. coli” value read?
A: not soluble

Q: For “MKRILVSGGAGFIGSHLCTRLVNEGHDVICLDNFFTGSKDNIKHLMGNHHFEVVRHDVTYPYSAEVDEIYNLACPASPIHYQHDPIQTAKTSVMGAINMLGLAMRLDAKILQASTSEVYGDPIIHPQPESYWGNVNPVGYRSCYDEGKRCAETLFMDYYRQNQTRIKIIRIFNTYGPRMLPNDGRVVSNFIIQALNNEDITIYGDGKQTRSFQYIDDLIEGMVRMMDTEDDFTGPINIGNPNEFPVLELAERVIRMTGSTSKIVFKPLPTDDPKQRQPDIKLAKEKLGWQPTVELEDGLKRMIEYFKNV”, which “soluble on expression in E. coli” value is on record?
A: not soluble

Q: With “MELVVKSVAAASVKTATLVIPVGENRKLGAVAKAVDLASEGAISAVLKRGDLAGKPGQTLLLQNLQGLKAERVLLVGSGKDEALGDRTWRKLVASVAGVLKGLNGADAVLALDDVAVNNRDAHYGKYRLLAETLLDGEYVFDRFKSQKVEPRALKKVTLLADKAGQAEVERAVKHASAIATGMAFTRDLGNLPPNLCHPSFLAEQAKELGKAHKALKVEVLDEKKIKDLGMGAFYAVGQGSDQPPRLIVLNYQGGKKADKPFVLVGKGITFDTGGISLKPGAGMDEMKYDMCGAASVFGTLRAVLELQLPVNLVCLLACAENMPSGGATRPGDIVTTMSGQTVEILNTDAEGRLVLCDTLTYAERFKPQAVIDIATLTGACIVALGSHTTGLMGNNDDLVGQLLDAGKRADDRAWQLPLFDEYQEQLDSPFADMGNIGGPKAGTITAGCFLSRFAKAYNWAHMDIAGTAWISGGKDKGATGRPVPLLTQYLLDRAGA” as the sequence, how does the “soluble on expression in E. coli” value read?
A: soluble

Q: For “APWFLEYSKSECHFYNGTQRVRLLVRYFYNLEENLRFDSDVGEFRAVTELGRPDAENWNSQPEFLEQKRAEVDTVCRHNYEIFDNFLVPRRVEPTVTVYPTKTQPLEHHNLLVCSVSDFYPGNIEVRWFRNGKEEKTGIVSTGLVRNGDWTFQTLVMLETVPQSGEVYTCQVEHPSLTDPVTVEW”, which “soluble on expression in E. coli” value is on record?
A: soluble

Q: For “MGSDKIHHHHHHMKLMIGKLFWDTGASMPCYPSLENDMICDMLVVGSGEAGAQIAYSLVKMGMRVTLIEKNMISCGSTAANTGLLQFLHDKSLTSLIHTFGEEKGVRAYKLCYEALRTMEKVVPTLDIDPQFIPRNSLYYASKSEDVSFLQEEYKTLQNYEFPVEYFTASDIKERYPFTRQAALYTHGDAEVNPYLLAHSLLHKANQMGANIYEHTEAIHIKKRQNDLICYTKTGNQIVAKNIIMATGYEALFGKKEKNTTVETSYAVVTNKVDSFEGWHEQSLIWETARPYLYFRTYENRIIVGGLDEAMKIQTIGDTKLLHKRDVLINIIKEMFPQYKDIQAEYYWAAAFGGSHDGLPILKEDNKIHNLFYALPYGGNGTVYGMVFAKIFEQLFTNKESEDFSLFNR”, which “soluble on expression in E. coli” value is on record?
A: not soluble

Q: Which “soluble on expression in E. coli” value does the source give for “MSARLDAQIAFLKQADRLKSVERANVLLDLSRPENSAEHSWHLALWALVLSPFAAPDVDVDRAIRMLLLHDLVEIETGDHPIHEVTDWQAVERAERAAARKLFGLLPPDQAADFHTLWTEFDADETADARYAKMLDRCQPMFQVLCADTPRPDHVEVVRENLSSGRAAYLAEAFPEAHAHARALLERHPPVTGGFGDRLEFLAEADRLKTVLRASRLMDDSRFENSAEHSWHIMLYAWVLGEYAAAPVDIDRVLRMLLLHDLVEIDAGDNPIHGNVDHAAQEALEAAAAERLFGLLPPDQGAGLRAIWQEFETAQSADALFGKAVDRVQTPIANLENGGGSWVTYDVSLQQLVARVGTPVSRGAPGLWDWLFPQLSDCFTRLGLRLLEHHHHHH” here?
A: soluble

Q: Which “soluble on expression in E. coli” value does the source give for “VPRIRKLVAALHRRGPHRVLRGDLAFAGLPGVVYTPEAGLHLPGVAFGHDWLTGTSRYSGLLEHLASWGIVAAAPDSERGLAPSVLNLAFDLGVALDIVAGVRLGPGKISVHPAKLGLVGHGFGGSAAVFAAAGLTGTHVKSVAAIFPTVTNPAAEQPAATLDVPGLILTAPGDPKTLTSNALGLSRAWDKATLRIVSKARAGGLVEGRRLTKVLGLPGPHRRTQRSVRALLTGYLLYTLGGDKTYRRFADPDLQLPKTDPIDPEAPPITPGEKIVTLLK” here?
A: not soluble

Q: Which “soluble on expression in E. coli” value does the source give for “MKYVIGIDGGGSKTHMKISTLDYKVLLEVFKGPSNINSSTKEEVKRVLQELIMEGLGKLGQSLEECSAICIGTAGADRTEDKSIIEDMIRSLGYMGKIIVVNDAEIALAGGIEKREGIIVISGTGSICYGRNKEGRSARSGGWGHIIGDEGSGYDIGIKAIKAALKSFDKRGEKTILEGDILDFLKLKSHEDLINYIYRSGVTKKEIASLTRVVNSAYIKGDLVSKRILKEAARELFLSVKAVVEVLSMQNKKVVLTTAGGVINNINYLYDEFRKFLNLNYPKVKIISMKNDSAFGAVIIARSECDMAGDPLEHHHHHH” here?
A: not soluble
